Measurements from patent US20130171236A1, “Prevention and Treatment of Ischemia-Reperfusion Injury and Related Conditions” (MEDICAL UNIVERSITY OF SOUTH CAROLINA, priority 2006, published 2013).

What was measured:
[1] = tested on: C57B1/6 mice; assay: Intestinal ischemia-reperfusion injury model in immune competent mice; format: in vivo; conditions: injected right before the reperfusion phase, FIG. 9
Experimental: To address this issue, the inventors created compounds that could block the effects of the monoclonal antibodies. This concept was first tested with the antibodies recognizing phospholipids, and liposomes were created composed of cholesterol and the phospholipids phosphatidylcholine and phosphoglycerol.
Wild type C57BL/6 are utilized for these studies. The ischemia-reperfusion model is performed as outlined briefly. Anesthesia is induced with ketamine (16 mg/kg) and xylazine (8 mg/kg) administered by intramuscular injection. All procedures are performed with the animals breathing spontaneously and body temperature maintained at 37° C. using a water-circulating heating pad. To induce ischemia-reperfusion injury, a midline laparotomy is performed prior to a 30 minute equilibration period. […] After this ischemic phase, the clamp is removed under direct visualization and the intestine allowed to perfuse for 2 hours. […] The laparotomy incisions are then sutured and the animals monitored during the reperfusion period. […]
For histology and immunohistochemistry, immediately after euthansia segments of small intestine specimens are fixed in 10% buffered formalin. […] In addition, the villus height of at least 10 villi from the same section is measured using an ocular micrometer. […]

[2] = tested on: C57B1/6 mice; assay: MCAO ischemic stroke and reperfusion in C57B1/6 mice, treatment; format: in vivo; conditions: 100 μg i.v. at 30 min post reperfusion
Experimental: Eight week old male C57B1/6 and C57B1/6 C3 deficient mice (Jackson labs, Bar Harbor, Me.) were used in experiments. Mice were anesthetized with chloral hydrate (350 mg/kg) and xylazine (4 mg/kg) i.p., and the left common carotid artery of each mouse was exposed through a mid-line incision in the neck. […] The distal end of the ECA was ligated with 6-0 silk and transected, and 6-0 silk was tied loosely around the ECA stump. The clip was then removed, and the blunted tip of a 4-0 nylon suture was inserted into the ECA stump. The loop of the 6-0 silk was tightened around the stump, and the nylon suture advanced into and through the internal carotid artery until it rested in the anterior cerebral artery. After the nylon suture had been placed for 60 minutes, it was pulled back into the ECA, and the incision closed. […]
Infarct volume was measured by TTC staining and volume calculated using image analysis.
Animals were monitored for 24 hours post reperfusion and clinical assessed for neurological deficit. Behavioral/neurological deficit was scored as follows: 0, normal motor function; 1, flexion of torso and contralateral forelimb when animal is lifted by the tail; 2, circling to the contralateral side when held by tail on flat surface, but normal posture at rest; 3, leaning to the contralateral side at rest; 4, no spontaneous motor activity. […]

B1: annexin IV: recombinant annexin IV, a phospholipid binding protein, prepared as in Example 2 (protein, listed as Homo sapiens)
chain: MATKGGTVKAASGFNAMEDAQTLRKAMKGLGTDEDAIISVLAYRNTAQRQEIRTAYKSTIGRDLIDDLKSELSGNFEQVIVGMMTPTVLYDVQELRRAMKGAGTDEGCLIEILASRTPEEIRRISQTYQQQYGRSLEDDIRSDTSFMFQRVLVSLSAGGRDEGNYLDDALVRQDAQDLYEAGEKKWGTDEVKFLTVLCSRNRNHLLHVFDEYKRISQKDIEQSIKSETSGSFEDALLAIVKCMRNKSAYFAEKLYKSMKGLGTDDNTLIRVMVSRAEIDMLDIRAHFKRLYGKSLYSFIKGDTSGDYRKVLLVLCGGDD
intestinal ischemia-reperfusion injury [1]: nearly completely protected mice from ischemia-reperfusion injury | intestinal ischemia-reperfusion injury ([1]; listed as recombinant annexin IV): reduces the level of intestinal ischemia reperfusion injury | neurological deficit ([2]; 24 hours, FIG. 8): significant reduction in neurological deficit | cerebral infarct volume (TTC) ([2]; FIG. 7): significantly protects against cerebral infarct
